Data published in patent publication US20110236397.

Tests used:
[1] = tested on: purified FLAG-CD2AP
[2] = tested on: full-length CD2AP, GFP-tagged (GFP-CD2AP fusion protein, 98 kD)
[3] = tested on: C-terminal FLAG-tagged CD2AP (71 kD)
[4] = tested on: CD2AP with the cathepsin L cleavage site LSAAE deleted

Chain of purified FLAG-CD2AP (chain, as listed by the source): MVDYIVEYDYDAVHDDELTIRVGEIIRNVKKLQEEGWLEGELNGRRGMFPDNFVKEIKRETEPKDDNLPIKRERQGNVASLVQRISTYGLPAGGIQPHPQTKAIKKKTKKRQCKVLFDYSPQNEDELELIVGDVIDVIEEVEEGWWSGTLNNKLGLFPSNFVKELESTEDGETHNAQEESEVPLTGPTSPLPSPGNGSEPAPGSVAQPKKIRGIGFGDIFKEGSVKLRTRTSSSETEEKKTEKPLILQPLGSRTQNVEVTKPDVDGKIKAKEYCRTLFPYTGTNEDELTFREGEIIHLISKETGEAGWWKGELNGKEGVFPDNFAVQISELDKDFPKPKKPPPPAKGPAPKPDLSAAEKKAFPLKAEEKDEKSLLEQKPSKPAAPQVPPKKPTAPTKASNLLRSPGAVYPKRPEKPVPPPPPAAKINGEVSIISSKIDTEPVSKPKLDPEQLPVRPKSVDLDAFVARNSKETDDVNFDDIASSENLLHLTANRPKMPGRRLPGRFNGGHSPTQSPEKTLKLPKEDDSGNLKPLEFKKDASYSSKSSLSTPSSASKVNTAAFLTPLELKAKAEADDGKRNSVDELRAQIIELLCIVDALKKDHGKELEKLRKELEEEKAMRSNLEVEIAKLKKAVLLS

## purified cathepsin L enzyme (Sigma, specific activity 4.13 U/mg)
[1]
  in vitro cleavage assay, silver stain: cleavage assays performed at neutral conditions (pH 7.0) yielded a stable 32 kD CD2AP fragment (p32)
[2]
  in vitro cleavage assay, immunoblot: At neutral pH, CD2AP was cleaved into a stable 55 kD fragment as detected with an anti-GFP antibody
[3]
  in vitro cleavage assay, immunoblot: This experiment yielded a C-terminal 44 kD fragment of CD2AP; the anti-FLAG antibody also detected a strong band corresponding to p32 fragment
[4]
  in vitro cleavage assay, immunoblot: In absence of this cleavage site, the characteristic p32 fragment was no longer observed after enzymatic digest with cathepsin L enzyme
